The target in data set [1] is PKA (protein kinase A) catalytic unit, Promega. The experiment in a line: cell-based or functional assay.
Data set [2] deals with T1, Lissamine rhodamine-labeled peptide substrate (Dye-RPKPVE-Norvaline-WRKpSA).
T1 sequence: RPKPVEXWRKSA

In data set [3] the target is T2, Lissamine rhodamine-labeled peptide substrate (Dye-QQQEVYGMMPRDpSA).
T2 chain: QQQEVYGMMPRDSA

Molecule “PKI, a known synthetic peptide inhibitor of PKA” displayed an IC50 of inhibition of PKA activity (phosphorylation of Lissamine Rhodamine-labeled Kemptide, Fe(III) fluorescence quench assay) in data set [1] of 2.6 nM.
Take “Recombinant MMP-3 catalytic subunit (Matrix Metalloproteinase 3), Calbiochem”: the “Km (protease assay, fluorescence quench)” value in data set [2] is given as “Km was 1.44±0.15 µM”.

B1: Calpain 1 from human erythrocytes, Calbiochem (protein)
chain 1: SEEIITPVYCTGVSAQVQKQRARELGLGRHENAIKYLGQDYEQLRVRCLQSGTLFRDEAFPPVPQSLGYKDLGPNSSKTYGIKWKRPTELLSNPQFIVDGATRTDICQGALGDCWLLAAIASLTLNDTLLHRVVPHGQSFQNGYAGIFHFQLWQFGEWVDVVVDDLLPIKDGKLVFVHSAEGNEFWSALLEKAYAKVNGSYEALSGGSTSEGFEDFTGGVTEWYELRKAPSDLYQIILKALERGSLLGCSIDISSVLDMEAITFKKLVKGHAYSVTGAKQVNYRGQVVSLIRMRNPWGEVEWTGAWSDSSSEWNNVDPYERDQLRVKMEDGEFWMSFRDFMREFTRLEICNLTPDALKSRTIRKWNTTLYEGTWRRGSTAGGCRNYPATFWVNPQFKIRLDETDDPDDYGDRESGCSFVLALMQKHRRRERRFGRDMETIGFAVYEVPPELVGQPAVHLKRDFFLANASRARSEQFINLREVSTRFRLPPGEYVVVPSTFEPNKEGDFVLRFFSEKSAGTVELDDQIQANLPDEQVLSEEEIDENFKALFRQLAGEDMEISVKELRTILNRIISKHKDLRTKGFSLESCRSMVNLMDRDGNGKLGLVEFNILWNRIRNYLSIFRKFDLDKSGSMSAYEMRMAIESAGFKLNKKLYELIITRYSEPDLAVDFDNFVCCLVRLETMFRFFKTLDTDLDGVVTFDLFKWLQLTMFA
chain 2: MFLVNSFLKGGGGGGGGGGGLGGGLGNVLGGLISGAGGGGGGGGGGGGGGGGGGGGTAMRILGGVISAISEAAAQYNPEPPPPRTHYSNIEANESEEVRQFRRLFAQLAGDDMEVSATELMNILNKVVTRHPDLKTDGFGIDTCRSMVAVMDSDTTGKLGFEEFKYLWNNIKRWQAIYKQFDTDRSGTICSSELPGAFEAAGFHLNEHLYNMIIRRYSDESGNMDFDNFISCLVRLDAMFRAFKSLDKDGTGQIQVNIQEWLQLTMYS
For B1, the “Km (protease assay, fluorescence quench)” value in data set [3] is listed as “Km was 0.17±0.01 µM”.

The record behind these values is patent US20050106655A1.
